Measurements: patent US20250236667A1, “ANTIBODIES TO MUTANT CALRETICULIN AND USES THEREOF” (CENTRAL ADELAIDE LOCAL HEALTH NETWORK INC, priority 2021, published 2025)

Legend:
Type in all cases: cell-based, human
[1] = test system: TF-1 TpoR CALR^del61 cells; assay: Cell proliferation, trypan blue exclusion; details: over 5 days at 2, 10 and 20 μg/mL
Method: […] Cells were seeded in triplicate and each well was counted in triplicate every 24 hours for 5 days using trypan blue exclusion.

[2] = test system: phospho-STAT1,3,5 and phospho-ERK in TF-1 cells expressing TpoR alone; assay: Western blot of STAT/ERK signalling; details: 10 or 20 μg/mL for 4 or 8 hours, in presence of TPO
Method: (§1) A. Cell extracts blotted for phospho-STAT5, total STAT5, phospho-ERK, total ERK and actin from TF-1 TpoR cells after incubation with 10 or 20 μg/mL 4D7 or IgG for 4 or 8 hours, in presence of TPO. The last line indicates TPO withdrawal. B. Similar experiment using TPO-independent TF-1 TpoR CALR^del61 cells. C. Similar experiment using TPO-independent TF-1 TpoR CALR^del52 cells at 8 hours. D. Fraction of apoptotic sub-Go population of TF-1 TpoR CALR^del61 cells after 48 hours of 4D7 or IgG treatment (n=3). E. Western blot showing caspase 3 cleavage occurring within 24 hours of TPO withdrawal in TPO dependent TF-1 TpoR cells. An increase in cleaved caspase 3 is observed after 48 hours of treatment with 20 μg/mL 4D7 in TF-1 TpoR CALR^del61 and TF-1 TpoR CALR^del52 cells. F. Western blot of TpoR immunoprecipitation under non-reducing conditions showing associated CALR 50 kDa monomers and 100 kDa dimers (arrowheads) present only in TF-1 TpoR CALR^del61 disrupted by 8 hour treatment with 20 μg/mL 4D7 but not PBS or 20 μg/mL IgG. CALR monomers & dimers are detectable by polyclonal anti-wild type CALR or anti-mutant CALR monoclonal antibodies. Arrowheads, detected mutant CALR protein: asterisk, non-specific bands. G. Proposed model for the mechanism of action of 4D7 on mutant CALR. In the active form, mutant CALR dimers bound to TpoR form a constitutively activate receptor complex which is disrupted by 4D7 with blockade in STAT and ERK signalling. (Adapted from Masubuchi et al. (2020), Rivera et al (2021)). […]
(§2) A. Cell extracts blotted for phospho-STAT1, total STAT1, phospho-STAT3, total STAT3 and actin from TF-1 TpoR cells after incubation with 10 or 20 μg/mL 4D7 or IgG for 4 or 8 hours as indicated. […] Cells were harvested and fixed and stained with propidium iodide and their DNA contents were analysed. […] E. Western blot showing specific co-immunoprecipitation of mutant CALR^del61 cells with TpoR anti-FLAG antibody under reducing conditions detected by total and mutant specific CALR antibodies. Arrowheads represent detected CALR protein. […]

[3] = test system: phospho-STAT1,3,5 and phospho-ERK in TF-1 TpoR CALR^del61 cells; assay: Western blot of STAT/ERK signalling; details: 10 or 20 μg/mL; 4 and 8 hours
Method: as §1, §2

[4] = test system: phospho-STAT1,3,5 and phospho-ERK in TF-1 TpoR CALR^del52 cells; assay: Western blot of STAT/ERK signalling; details: 10 or 20 μg/mL; 8 hours
Method: as §1, §2

B1: 4D7: rat monoclonal IgG2a antibody against the mutant CALR neoepitope; VH SEQ ID NO: 5, VL SEQ ID NO: 7 (antibody, listed as Rattus rattus, V domains shown)
VH: QVQLQQSGAELAKPGSSVKISCKASGYTFTNYDMSWIKQRPGQALEWIGAINPGNGVTDYNEKFRGKATLTVDKSSSTAFMQLSSLTPEDTAVYHCAREYRDNYGYFDYWGQGVMVTVSS
VL: DIVLTQTPVSLSVTLGDQASISCRSSQSLEYSDGYTYLDWFLQKPGQSPQLLIYEVSSRFSGVPDRFIGRGSGTDFTLKISRVEPEDLGVYYCFQATHDPFTFGSGTKLEIK
[1]
  TPO-independent cell growth: blockade of TPO-independent cell growth
[2]
  inhibition of signalling: no inhibition of signalling
[3]
  constitutive factor-independent phospho-STAT1,3,5 and phospho-ERK: blockade
[4]
  constitutive factor-independent phospho-STAT1,3,5 and phospho-ERK: blockade
